{
  "source": "patent US20240417437A1",
  "about": "“Linker Polypeptides” (Trutino Biosciences Inc., priority 2021, published 2024)",
  "molecules": {"B1": {"name": "Construct III: mIL2-VRIQRKKEKMKET-MMPcs1-GGSKLWVLPKGS-mIL2Ra-muIgG1Fc; hep/col IV (protein)", "chain": "APTSSSTSSSTAEAQQQQQQQQQQQQHLEQLLMDLQELLSRMENYRNLKLPRMLTFKFYLPKQATELKDLQCLEDELGPLRHVLDLTQSKSFQLEDAENFISNIRVTVVKLKGSDNTFECQFDDESATVVDFLRRWIAFCQSIISTSPQVRIQRKKEKMKETGPLGVRGGGSKLWVLPKGSELCLYDPPEVPNATFKALSYKNGTILNCECKRGFRRLKELVYMRCLGNSWSSNCQCTSNSHDKSRKQVTAQLEHQKEQQTTTDMQKPTQSMHQENLTGHCREPPPWKHEDSKRIYHFVEGQSVHYECIPGYKALQRGPAISICKMKCGKTGWTQPQLTCVDEREHHRFLASEESQGSRNSSPESETSCPITTTDFPQPTETTAMTETFVLTMEYKGCKPCICTVPEVSSVFIFPPKPKDVLTITLTPKVTCVVVDISKDDPEVQFSWFVDDVEVHTAQTQPREEQFNSTFRSVSELPIMHQDWLNGKEFKCRVNSAAFPAPIEKTISKTKGRPKAPQVYTIPPPKEQMAKDKVSLTCMITDFFPEDITVEWQWNGQPAENYKNTQPIMDTDGSYFVYSKLNVQKSNWEAGNTFTCSVLHEGLHNHHTEKSLSHSPGK", "modifications": "Synthetic: Construct III", "notes": "mIL2-…-MMPcs1-…-mIL2Ra-muIgG1Fc; hep/col IV"}, "B2": {"name": "Construct DD: mIL2-2x(GHHPH)-MMPscr-2x(G4S)-mIL2Ra(1-215)-muIgG1Fc; pH heparin (protein)", "chain": "APTSSSTSSSTAEAQQQQQQQQQQQQHLEQLLMDLQELLSRMENYRNLKLPRMLTFKFYLPKQATELKDLQCLEDELGPLRHVLDLTQSKSFQLEDAENFISNIRVTVVKLKGSDNTFECQFDDESATVVDFLRRWIAFCQSIISTSPQGHHPHGHHPHGVRLGPGGGGGSGGGGSELCLYDPPEVPNATFKALSYKNGTILNCECKRGFRRLKELVYMRCLGNSWSSNCQCTSNSHDKSRKQVTAQLEHQKEQQTTTDMQKPTQSMHQENLTGHCREPPPWKHEDSKRIYHFVEGQSVHYECIPGYKALQRGPAISICKMKCGKTGWTQPQLTCVDEREHHRFLASEESQGSRNSSPESETSCPITTTDFPQPTETTAMTETFVLTMEYKGCKPCICTVPEVSSVFIFPPKPKDVLTITLTPKVTCVVVDISKDDPEVQFSWFVDDVEVHTAQTQPREEQFNSTFRSVSELPIMHQDWLNGKEFKCRVNSAAFPAPIEKTISKTKGRPKAPQVYTIPPPKEQMAKDKVSLTCMITDFFPEDITVEWQWNGQPAENYKNTQPIMDTDGSYFVYSKLNVQKSNWEAGNTFTCSVLHEGLHNHHTEKSLSHSPGK", "modifications": "Synthetic: Construct DD", "notes": "mIL2-2x(GHHPH)-MMPscr-2x(G4S)-mIL2Ra(1-215)-muIgG1Fc; pH heparin"}, "B3": {"name": "641 (protein)", "chain": "GVYHREARSGKYKLTYAEAKAVCEFEGGHLATYKGLEAARKIGFHVCAAGWMAKGRVGYPIVKPGPPNCGFGKTGIIDYGIRLNRSERWDAYCYNPHA", "modifications": "Synthetic: hyaluronic acid; pH dependent (Link_TGS6)"}},
  "key": {"B16F10 melanoma cells [1]": {"tested_on": "B16F10 melanoma cells", "assay": "B16F10 melanoma tumor growth inhibition study", "format": "in vivo", "conditions": "20 mg/kg IV Q3D, 5 doses, B16F10 in C57BL/6 mice", "method": "C57BL/6 mice were subcutaneously inoculated with B16F10 melanoma cells and when the average tumor volume reached on average 70-90 mm^3, animals were randomized into 6 groups based on tumor volumes (n=8 mice per treatment group). Mice were dosed intravenously every 3 days (Q3D) for a total of 5 doses according to Table 7.\nTumor volumes were measured twice a week for the duration of the study. […] On day 14, animals were sacrificed, and tissues and blood (processed to serum) were collected 24 hours post final dose (dose #5) and stored at −80° C. until further testing."}, "B16F10 melanoma cells [2]": {"tested_on": "B16F10 melanoma cells", "assay": "Tumor lysate levels of full-length fusion protein (ELISA), IL-2 and IFN-γ (Luminex), B16F10 study", "format": "in vivo, C57BL/6 mice", "conditions": "tumor lysate 24 hours after last dose", "method": "An ELISA assay was developed to detect and quantify prodrug fusion proteins comprising IL-2 and IL-2Ra moieties. Wells of a 96-well plate were coated overnight with 100 μL of a rat anti-mouse IL-2 monoclonal antibody (JES6-1A12; ThermoFisher) at […] in PBS. After washing, wells are blocked with TBS/0.05% Tween 20/1% BSA, then fusion proteins and/or unknown biological samples were added for 1 hour at room temperature. After washing, an anti-mouse IL-2Ra biotin-labelled detection antibody (BAF2438, R&D systems) was added and binding was detected using Ultra Strepavidin HRP (ThermoFisher). The ELISA plate was developed by adding the chromogenic tetramethylbenzidine substrate (Ultra TMB, ThermoFisher). The reaction was stopped by addition of 0.5 M H2SO4, and the absorbance was read at 450-650 nm.\nThe levels of full-length IL-2-IL-2Ra fusion proteins, IL-2, and IFN-7 were quantified in tumor samples collected during a pre-clinical efficacy study comparing a panel of retention linker IL-2 fusion drugs (see Example 10).\nTumors (n=3 per group) were collected 24 hours after the last dose injection, flash frozen, and stored at −80° C. until further processing. Tumor lysates were generated using tissue extraction reagent (ThermoFisher) supplemented with protease and phosphatase inhibitors. Standard techniques and protein concentrations were determined using the BCA assay (Pierce). […]"}, "[3]": {"tested_on": "EMT6 breast cancer syngeneic model", "assay": "Real-time whole-body imaging of Dylight 650 labelled IL-2 fusion proteins in tumors", "format": "in vivo", "conditions": "8 mg/kg IV once, each time-point over 96 hours, EMT6 tumor-bearing BALB/c mice", "method": "The levels of IL-2 fusion proteins present in tumors in vivo were assessed by utilizing fluorescently labelled proteins and real-time whole-body imaging. Non-cleavable Construct GGG and Construct DD were conjugated to Dylight 650 probe according to the manufacturer's protocol (Dylight 650 Antibody labeling kit, ThermoFisher). […] BALB/c mice were subcutaneously inoculated with EMT6 breast cancer syngeneic model, and when the average tumor volume reached 240 mm^3, animals were randomized into 3 groups based on tumor volumes (n=2 mice per treatment group).\nFollowing administration of a single dose of the labeled IL-2 fusion proteins to tumor-bearing mice, fluorescent images (excitation 640/emission 680 consistent with Dylight 650 probe ex/em spectra) were captured over 96 hours on an IVIS system (PerkinElmer, IVIS Lumina Series III) and are shown in FIG. 5A. The fluorescence intensity in tumor areas was quantified across the groups, average background tumor fluorescence (group 1) was subtracted from group 2 and 3 values at each time-point, and data were normalized to the initial fluorescence intensity of same amount of each labeled protein. […] This signifies next generation retention linker Construct DD accumulated and was retained in tumors at 2-fold higher levels compared to IL-2 fusion protein Construct GGG, lacking any targeting sequence."}, "[4]": {"conditions": "Link_TGS6; cited from earlier work"}},
  "data": [
    {"molecule": "B1", "values": [
      {"measurement": "tumor growth inhibition (TGI)", "setting": "B16F10 melanoma cells [1]", "value": 83.5, "unit": "%"},
      {"measurement": "levels of IFN-7 in tumors", "setting": "B16F10 melanoma cells [2]", "value": "enhanced"},
      {"measurement": "IL-2 intratumoral levels", "setting": "B16F10 melanoma cells [2]; compared to other arms", "value": "highest"}
    ]},
    {"molecule": "B2", "values": [
      {"measurement": "tumor-associated fluorescence / level retained in tumors, fold higher compared to Construct GGG", "setting": "[3]", "value": "roughly 2 fold"}
    ]},
    {"molecule": "B3", "values": [
      {"measurement": "Note 2: pH dependence of binding to hyaluronic acid", "setting": "[4]", "value": "binds better at lower pH"}
    ]}
  ]
}
